These results are taken from publication PMC4873633, “Dietary salt regulates uroguanylin expression and signaling activity in the kidney, but not in the intestine” (Physiological Reports, 2016).

Usually Ki stands for the dissociation constant of the complex between target and ligand, obtained from inhibition or displacement. The low end stands for higher affinity, the high end for lower affinity. The Kd is the concentration at which binding is half-saturated. Higher therefore signals a looser complex.

Bridge positions count the residues as written; N and C are the ends. Peptide text beside a SMILES is read from it.

Data set [1] has as its target T1, GC-C (Ugn receptor) in T84 cell membranes (Homo sapiens, UniProt P25092).
T1 construct: plasma membranes derived from the T84 cell line, which abundantly expresses GC‐C; endogenous in cells; host or cells: T84 cell membranes
Briefly: Competitive Ugn binding assay (125I-Y-Ugn, T84 cell membranes). The settings on record: pH 4.5, 1 h at 25°C; for Ki: displacement of 1 nmol/L 125I-Y-Ugn, T84 cell membranes, triplicate, rat Ugn n = 8 (R2 0.9985), rat Gn n = 3 (R2 0.9587), rat proUgn n = 3 (R2 0.9677). The method, then:
Urine samples were first dialyzed against deionized H2O, using SpectraPor® 500‐M.W. cutoff dialysis membrane (Spectrum Laboratories Inc., Rancho Domingo, CA), then dried (Savant SpeedVac, Thermo Electron Corporation, Waltham, MA) and re‐dissolved in 100 μL of assay buffer [1 nmol/L ^125I‐Y‐Ugn in NaHCO3–free HBSS supplemented with 20 mmol/L sodium citrate and 0.75% bovine serum albumin (Sigma, St. Louis, Mo, USA)]. The pH was individually adjusted to 4.5 with NaOH or HCl using a miniaturized glass microelectrode (Microelectrodes Inc., Bedford, NH). Prepared samples were incubated in triplicate for 1 h at 25°C in polypropylene tubes with 20 μL of T84 cell membranes (10–20 μg protein). Samples were then diluted in 1 mL of ice‐cold rinse buffer, rapidly filtered through Whatman GF/C glass microfiber filters presoaked in distilled water, and quickly rinsed twice with 5 mL of ice‐cold rinse buffer (50 mmol/L Tris‐HCl at pH 7.0). Bound radioligand (retained by the filter) was quantified with a gamma counter (Packard Cobra, PerkinElmer Life and Analytical Sciences Inc., Waltham, MA). Ugn concentrations in sample solutions were calculated by interpolation in a standard curve obtained from a dilution series of synthetic rat Ugn incubated and analyzed in parallel with the unknowns. Non‐specific binding was determined by including 10^−5 mol/L unlabeled Y‐Ugn in place of Ugn standards or unknowns.
All data were plotted as mean ± SEM (or, in the case of n = 2, as mean ± range). Paired t‐tests were used for comparison of Ugn excretion, water consumption, and food consumption. GraphPad Prism 5.0 (LaJolla, CA) was used for analysis of binding data, with formulas derived from the Cheng‐Prusoff equation: cpm bound = NSB + [(B max − NSB)/1 + 10∧[log10(competitor concentration) − log10(IC50)]}], where NSB = nonspecific binding (in the presence of saturating competitor) and B max = maximal binding (in the absence of competitor). […]
Because GC‐C, the Ugn receptor (Schulz et al. 1990), is activated at the apical membranes of the cells that form the renal tubules (White et al. 1989; Hodson et al. 2006; Santos‐Neto et al. 2006), we can evaluate renal Ugn signaling (the presence of Ugn within the tubule lumen) by measuring the rate at which Ugn is excreted in urine (UUgnV). However, the conventional Ugn bioassay, which measures levels of the peptide by quantifying its stimulatory effect on ligand‐activated cGMP synthesis (Carrithers et al. 1999, 2000a), is compromised by high levels of cGMP that are naturally present in urine. […]
It can quantify Ugn in the picomolar range (Fig. 2A, black circles), allowing us to perform triplicate measurements of Ugn in rat urine samples as small as 20 μL. […]

The nature of data set [2]: Tissue (vascular) ligation studies, plasma proUgn. Format: in vivo, rat. On the procedure:
Rats were anesthetized (sodium pentobarbital, 60 mg/kg, ip) and prepared for clearance experiments as previously described (Moss et al. 2010). They received an initial infusion of isotonic saline (6% of body weight), followed by an infusion of 10% mannitol in 0.9% saline at 100 μL/min containing FITC‐labeled inulin (400 μg/mL, Sigma Chemical Co. St Louis, MO). For renal ligations, 5.0 silk thread ligatures were placed loosely around right and left renal arteries, and tightened after baseline data had been collected. For intestinal ligations, the bowels were exteriorized and wrapped in saline‐soaked gauze. […] Blood was sampled every 40 min from the femoral artery.
ProUgn concentrations in plasma and tissues were measured by quantitative western blotting, as described previously (Moss et al. 2008). Samples were loaded on 4–12% polyacrylamide gels (Invitrogen Corp., Carlsbad, CA), and a standard curve was constructed with known amounts of recombinant rat proUgn (Ironwood Pharmaceuticals, Cambridge, MA). Gels were blotted to nitrocellulose and probed with primary antibody 6910 (Moss et al. 2008; Qian et al. 2008) and an IR dye‐coupled secondary antibody. Imaging and quantification were performed with an Odyssey System (LI‐COR Biosciences, Lincoln, NE). Values were corrected for recovery, as determined in parallel control assays with known amounts of recombinant rat proUgn.
Previous surveys have identified only two organs (intestine and kidney) that contain levels of proUgn polypeptide sufficient to generate the relatively large circulating pool of proUgn (Moss et al. 2008; Qian et al. 2008). To determine the extent to which each of these organs contributes to the plasma pool, we ligated either the splanchnic or the renal blood supply, and measured the effects of each ligation on circulating proUgn levels. […] For the renal ligations, we also infused each animal with inulin (a reference standard used to assess glomerular filtration rates), and measured plasma inulin at each time point (Fig. 5A, left panel, white symbols). […]

For data set [3] the following is noted: intravascular infusion, rodents; ref none printed in abstract; cited from earlier work. The source says: Abstract The peptide uroguanylin (Ugn) is expressed at significant levels only in intestine and kidney, and is stored in both tissues primarily (perhaps exclusively) as intact prouroguanylin (proUgn). […] In conjunction with previous studies, this observation critically strengthens the contention that Ugn is an authentic endocrine agent as follows: (1) Ablation of the Ugn gene leads to hypertension (Lorenz et al. 2003; Elitsur et al. 2006), an appropriate phenotype for an animal that lacks an endocrine mechanism involved in electrolyte homeostasis.

For data set [4] the following is noted: cited from earlier work. An excerpt: To investigate this in a statistically reliable manner, we obtained single plasma samples from a larger number of individual animals at a specific time of day (3 AM) under each dietary condition. […] Recent speculation has focused on proUgn, rather than Ugn, as the endocrine mediator of this putative signaling axis, because (1) proUgn is by far the most abundant molecular species stored in tissues and circulating in plasma (Moss et al. 2008), and (2) when isotopically labeled recombinant p ...

T1 sequence (P25092 24-1073): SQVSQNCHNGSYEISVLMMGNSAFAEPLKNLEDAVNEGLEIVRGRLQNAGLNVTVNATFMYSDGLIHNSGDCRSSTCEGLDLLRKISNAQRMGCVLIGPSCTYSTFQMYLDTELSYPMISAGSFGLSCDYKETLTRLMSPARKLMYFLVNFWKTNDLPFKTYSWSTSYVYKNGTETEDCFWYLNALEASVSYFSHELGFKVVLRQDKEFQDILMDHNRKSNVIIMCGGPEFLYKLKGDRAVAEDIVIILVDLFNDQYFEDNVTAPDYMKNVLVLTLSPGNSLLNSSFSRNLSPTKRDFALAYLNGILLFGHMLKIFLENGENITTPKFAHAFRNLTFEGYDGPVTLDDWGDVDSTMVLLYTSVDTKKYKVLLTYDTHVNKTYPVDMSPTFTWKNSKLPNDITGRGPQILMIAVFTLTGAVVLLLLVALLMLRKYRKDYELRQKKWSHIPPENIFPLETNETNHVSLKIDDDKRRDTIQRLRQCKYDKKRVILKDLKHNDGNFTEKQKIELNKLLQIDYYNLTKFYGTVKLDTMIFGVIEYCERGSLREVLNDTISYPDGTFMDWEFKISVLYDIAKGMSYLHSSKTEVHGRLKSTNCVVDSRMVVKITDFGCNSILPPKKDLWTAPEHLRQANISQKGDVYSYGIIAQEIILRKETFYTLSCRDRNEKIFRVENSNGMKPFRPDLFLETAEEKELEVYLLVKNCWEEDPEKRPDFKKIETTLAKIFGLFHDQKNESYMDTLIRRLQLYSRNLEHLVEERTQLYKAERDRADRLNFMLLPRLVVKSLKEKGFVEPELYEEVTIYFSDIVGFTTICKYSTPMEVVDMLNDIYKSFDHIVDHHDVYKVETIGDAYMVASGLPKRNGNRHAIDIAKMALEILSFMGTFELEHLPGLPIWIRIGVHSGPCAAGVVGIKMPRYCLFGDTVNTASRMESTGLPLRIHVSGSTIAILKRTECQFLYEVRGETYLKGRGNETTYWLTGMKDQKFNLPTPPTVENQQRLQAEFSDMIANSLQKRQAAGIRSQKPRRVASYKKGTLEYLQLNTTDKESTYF

For the molecule `CC[C@H](C)[C@@H]1NC(=O)[C@H](CCC(=O)O)NC(=O)[C@@H](NC(=O)[C@@H](NC(=O)[C@H](CC(N)=O)NC(=O)[C@@H]2CCCN2)[C@@H](C)O)CSSC[C@@H]2NC(=O)[C@H](C)NC(=O)[C@H](C)NC(=O)[C@H](Cc3ccc(O)cc3)NC(=O)[C@H](C)NC(=O)[C@H](CSSC[C@@H](C(=O)O)NC(=O)CNC(=O)[C@H]([C@@H](C)O)NC2=O)NC1=O` [Gn, guanylin] (H-PNTCEICAYAACTGC-OH; disulfide 4-12, 7-15), in data set [1], the affinity, expressed as Ki, was 170 nM.
On the same count and under the same terms, with `CC[C@H](C)[C@@H]1NC(=O)[C@@H]2CSSC[C@@H](C(=O)O)NC(=O)CNC(=O)[C@H]([C@@H](C)O)NC(=O)[C@H](CSSC[C@H](NC(=O)[C@H](CCC(=O)O)NC(=O)[C@H](CC(=O)O)NC(=O)[C@@H](N)[C@@H](C)O)C(=O)N[C@@H](CCC(=O)O)C(=O)N[C@@H](CC(C)C)C(=O)N2)NC(=O)[C@H](C)NC(=O)[C@H](C(C)C)NC(=O)[C@H](CC(N)=O)NC1=O` [Ugn, uroguanylin] (H-TDECELCINVACTGC-OH; disulfide 4-12, 7-15) the figure was 1.04 nM.
As for “^125I‐Y‐Ugn: N‐tyrosyl rat Ugn (Y‐Ugn, Bachem Inc.) iodinated as previously described; radioligand (YTDECELCINVACTGC; 125I-iodinated on the added N-terminal Tyr; two disulfides (Cys1-Cys3 and Cys2-Cys4 of the uroguanylin peptide, by convention); The 15-residue C-terminal peptide limits are by convention; check residu)”, the Kd in data set [1] (T84 cell membranes (10–20 μg protein), filtration, gamma counter, R2 0.9659, n = 3) turned out to be 1.5 nM.

B1: prouroguanylin (protein, UniProt P70668 22-106, looked up)
pro-form: VYIKYHGFQVQLESVKKLNELEEKQMSDPQQQKSGLLPDVCYNPALPLDLQPVCASQEAASTFKALRTIATDECELCINVACTGC
modifications: pro-form
notes: Recombinant rat proUgn, Ironwood Pharmaceuticals; also endogenous propeptide in plasma
Consider B1, for which the “Plasma proUgn after renal artery ligation” value in data set [2] (endogenous, anesthetized rats, renal artery ligation) is “rose rapidly”. Besides, the “Plasma proUgn after splanchnic ligation” value in data set [2] (endogenous, anesthetized rats, splanchnic ligation) is recorded as “fell to barely detectable levels”. Moreover, in data set [2] (renal artery ligation, FITC-inulin infused, percentage basis), the “Postligation rate of rise of plasma proUgn relative to inulin” value was “nearly identical to that of inulin”. For the same molecule, the Natriuretic response entry in data set [3] was “natriuretic responses in rodents”. In addition, the “Time for appearance of nearly all recovered Ugn in urine after proUgn” value in data set [4] (intravascular bolus of exogenous proUgn, ref Moss et al. 2010) is 30 to 60 min. In addition, the “Renal filtration and conversion” value in data set [4] (isotopically labeled recombinant proUgn infused intravascularly, ref Qian et al. 2008) is “readily filtered from plasma by the kidney, and converted within the kidney to Ugn”. In addition, the Ki in data set [1] is 8900 nM.
